Assay results: US12060598

Molecular target: T1, octanoyl-ACP (octanoyl-acyl carrier protein, E. coli K12 MG1655 ACP), P0A6A8
T1 chain: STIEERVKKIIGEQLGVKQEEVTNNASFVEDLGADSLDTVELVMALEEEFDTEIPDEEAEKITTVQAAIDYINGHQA

B1: CpFatB1.2-M4 (ΔA54, N28S, I65M) (protein)
chain: MGSSHHHHHHSSENLYFQGGGGYAAHRDYHRVRCAGKRWTMFDRKSKRPSMLMDSFGLERVVQDGLVFRQSFSIRSYEICADRTASMETVMNHVQETSLNQCKSIGLLDDGFGRSPEMCKRDLIWVVTRMKIMVNRYPTWGDTIEVSTWLSQSGKIGMGRDWLISDCNTGEILVRATSVYAMMNQKTRRFSKLPHEVRQEFAPHFLDSPPAIEDNDGKLQKFDVKTGDSIRKGLTPGWYDLDVNQHVSNVKYIGWILESMPTEVLETQELCSLTLEYRRECGRDSVLESVTSMDPSKVGDRFQYRHLLRLEDGADIMKGRTEWRPKNAGTNGAISTGKT
  Km (DTNB thioesterase assay): the Km remained relatively low
  Vmax (DTNB thioesterase assay), fold relative to CpFatB1.2: 15.7 fold increase in Vmax over CpFatB1.2
